Reference: patent US11858972B2, “Micropeptides and uses thereof” (FUNDACIÓ PRIVADA INSTITUT D'INVESTIGACIÓ ONCOLÒGICA DE VALL …, priority 2018, dated 2024)

How the values were obtained:
H10 cells = assay: Cell cycle analysis by flow cytometry; type: cell-based
Excerpt: (§1) FIG. 8. SEQ ID NO: 1 overexpression reduces cell proliferation. A549 and H10 cells were transduced with an inducible lentivirus coding HA-SEQ ID NO: 1. SEQ ID NO: 1 expression was induced by doxycycline treatment for 14 days. (A) Growth curve of transduced cells over 14 days of SEQ ID NO:1 expression. (B) Cell cycle analysis by flow cytometry. Left, histogram plots. Right, quantification of the number of cells in every cell cycle phase. Graphs show the mean±SD, using at least 3 technical replicates. **** P<0.0001, two-tailed t-test.
(§2) Micropeptide of SEQ ID NO: 1 expression was induced in BxPC3 cells by treatment with doxycycline (2 μg/ml) for 4 days. Cells were fixed using 100% ethanol at 4° C., stained with Propidium Iodide, and cell cycle was analysed by flow cytometry (LSR-Fortessa cytometer). Cell viability in micropeptide of SEQ ID NO: 1-expressing cells was evaluated using CellTiter-Glo 2.0 (Promega) following manufacturer's instructions.

[1] = tested on: protein ubiquitylation pattern in BxPC-3 infected cells; assay: Ubiquitylated protein levels by Western Blot after MG132; type: cell-based; conditions: proteasome blocking with MG132
Excerpt: FIG. 11. Micropeptide of sequence SEQ ID NO: 1 expression changes cell ubiquitylation pattern. (A) Co-Immunoprecipitation using Anti-HA and Western Blot experiments indicate the presence of ubiquitylated proteins in the pull down of SEQ ID NO: 1 expressing cells. (B) Analysis of ubiquitylated protein levels by Western Blot in SEQ ID NO: 1 or empty vector BxPC-3 infected cells after proteasome blocking treatment with MG132.

A549 cancer cells = assay: Invasion assay (Boyden chamber, Matrigel); type: cell-based, human; conditions: A549, after 4 days of doxycycline induction, 24 h invasion
Protocol: FIG. 9. SEQ ID NO: 1 overexpression impairs invasiveness and reduces mesenchymal traits in A549 and H10 cell lines. Invasion of indicated cells was analyzed in matrigel-coated inserts. (A) The undersides of membrane inserts containing invaded cells were fixed and stained with crystal violet and photographed 24 h after plating. (B) Number of invasive cells was calculated using ImageJ software. Bars plots show relative number of cells invading the chamber. (C) Analysis of several mesenchymal genes by qPCR. mRNA expression is shown relative to the control. * P<0.05, **P<0.01 two-tailed t-test.
BxPC-3, MDA-MB-231, A549 and H10 cell lines were trypsinized, counted, and 20.000 cells/well were seeded in triplicate in a Corning® cell culture insert (Boyden chamber) in which the porous membrane is coated with a layer of Matrigel® to mimic an extra cellular matrix (ECM). Cells were allowed to invade through the coated membrane for 24 hours in the cell incubator at 37° C. After the incubation time, culture inserts were fixed in methanol 5 minutes at RT and stained using Crystal Violet 20 minutes at RT. The excess of Crystal Violet staining was removed washing with PBS and pictures of the chambers were taken using an Olympus CeIIR microscope. Invading cells were counted using ImageJ and fold change was calculated normalizing to the control.

A549 cells = assay: Cell cycle analysis by flow cytometry; type: cell-based, human
Excerpt: as §1, §2

BxPC-3 cells = assay: Drug sensitivity assay, cell viability by crystal violet; type: cell-based; parameters: cell death induced by Doxorubicin: dose or concentration left out as unconfirmed; conditions: days 2 to 4
Protocol: FIG. 6. Micropeptide of sequence SEQ ID NO: 1 expression induces cell death upon cellularstress. SkBR-3, HPAF II, MIA PaCa-2 and BxPC-3 cells were infected with empty or SEQ ID NO: 1-HA retroviruses, and selected by puromycin. Micropeptide of sequence SEQ ID NO: 1 expression was analyzed by qPCR (A) and by Western blot (B). (C) Phase contrast images of the indicated cells 3 days after selection with puromycin. […] (E) BXPC-3 cells were infected with an inducible lentivirus encoding SEQ ID NO: 1-HA, and selected with Neomycin. Micropeptide of sequence SEQ ID NO: 1 expression was induced by doxycycline, and cells were treated with Doxorubicin or Actinomycin D. (E) Cell viability of the indicated cells measured by crystal violet staining. For drug sensitivity assays, doxycycline induction was coupled with Doxorubicin ([…]) or Actinomycin D (5 nM) (from days 2 to 4), and cell viability was measured by staining with crystal violet.

[2] = tested on: Lung cancer cell line A549; assay: Cell proliferation assay (growth curve, 14 days); type: cell-based, human; conditions: A549, monitored for 14 days, vs control vector
Excerpt: as §1
A549 and H10 cell lines were dissociated by trypsin digestion and seeded into 24-well cell culture plates at density 5×10^3 cells/well. Every two days, cells were dissociated from wells and counted using a Neubauer chamber. Cell growth curves were monitored for 14 days.

BxPC-3 infected cells = assay: Annexin V/PI assay; type: cell-based; conditions: BxPC-3, SEQ ID NO: 1-Puromycin conditions
Protocol: FIG. 6. Micropeptide of sequence SEQ ID NO: 1 expression induces cell death upon cellularstress. SkBR-3, HPAF II, MIA PaCa-2 and BxPC-3 cells were infected with empty or SEQ ID NO: 1-HA retroviruses, and selected by puromycin. Micropeptide of sequence SEQ ID NO: 1 expression was analyzed by qPCR (A) and by Western blot (B). (C) Phase contrast images of the indicated cells 3 days after selection with puromycin. (D) Annexin-V/PI staining of BxPC-3 infected cells with and without puromycin treatment, analyzed by Flow Cytrometry. (E) BXPC-3 cells were infected with an inducible lentivirus encoding SEQ ID NO: 1-HA, and selected with Neomycin. Micropeptide of sequence SEQ ID NO: 1 expression was induced by doxycycline, and cells were treated with Doxorubicin or Actinomycin D. (E) Cell viability of the indicated cells measured by crystal violet staining.
After lentiviral infection and puromycin selection for 72 h, infected cells were washed twice with cold PBS and resuspended in Binding Buffer at a cell density of 1×10^6 cells/mL. Following manufacturer's instructions (BD Pharmingen™) 100 μL of cells were treated with 5 μL of Annexin V-FITC. After incubation for 15 min in the dark at room temperature, 400 ul of Binding Buffer was added and each sample was supplemented with 10 μL of Propidium Iodide. Flow cytometry analysis was performed on a LSR Fortessa cytometer.

B1: SEQ ID NO: 1: highly conserved 87 aa micropeptide coded by the lncRNA TINCR; predicted ubiquitin-like protein (protein, listed as Homo sapiens)
chain: MEGLRRGLSRWKRYHIKVHLADEALLLPLTVRPRDTLSDLRAQLVGQGVSSWKRAFYYNARRLDDHQTVRDARLQDGSVLLLVSDPR
cells arrested in G1 phase (H10 cells): increase in cells arrested in G1 phase
protein ubiquitylation pattern [1]: alters protein ubiquitylation pattern
invasion (A549 cancer cells): significant decrease in invasion
cells arrested in G1 phase (A549 cells): increase in cells arrested in G1 phase
cell death induced by Actinomycin D (BxPC-3 cells; BxPC-3, doxycycline induction coupled with Actinomycin D (5 nM)): sensitizes to cell death
cell death induced by Doxorubicin (BxPC-3 cells; BxPC-3, doxycycline induction coupled with Doxorubicin): sensitizes to cell death
growth rate [2]: consistently lower growth rate
percentage of early apoptotic cells (BxPC-3 infected cells): 22.4%
percentage of late apoptotic cells (BxPC-3 infected cells): 58.6%
